{"source": "patent US20180263964A1", "about": "(MINERVA BIOTECHNOLOGIES, published 2018)", "binders": {"B1": {"name": "NME7AB (ligand)", "chain": "MEKTLALIKPDAISKAGEIIEIINKAGFTITKLKMMMLSRKEALDFHVDHQSRPFFNELIQFITTGPIIAMEILRDDAICEWKRLLGPANSGVARTDASESIRALFGTDGIRNAAHGPDSFASAAREMELFFPSSGGCGPANTAKFTNCTCCIVKPHAVSEGLLGKILMAIRDAGFEISAMQMFNMDRVNVEEFYEVYKGVVTEYHDMVTEMYSGPCVAMEIQQNNATKTFREFCGPADPEIARHLRPGTLRAIFGKTKIQNAVHCTDLPEDGLLEVQYFFKILDN", "notes": "In the co-immunoprecipitations and Western blots this is the endogenous 33 kDa species of cell lysates; also called human NME7-AB; 33 kDa NME7-reactive species"}, "B2": {"name": "full-length NME7, 42 kDa (other, UniProt Q9Y5B8 1-376, looked up)", "chain": "MNHSERFVFIAEWYDPNASLLRRYELLFYPGDGSVEMHDVKNHRTFLKRTKYDNLHLEDLFIGNKVNVFSRQLVLIDYGDQYTARQLGSRKEKTLALIKPDAISKAGEIIEIINKAGFTITKLKMMMLSRKEALDFHVDHQSRPFFNELIQFITTGPIIAMEILRDDAICEWKRLLGPANSGVARTDASESIRALFGTDGIRNAAHGPDSFASAAREMELFFPSSGGCGPANTAKFTNCTCCIVKPHAVSEGLLGKILMAIRDAGFEISAMQMFNMDRVNVEEFYEVYKGVVTEYHDMVTEMYSGPCVAMEIQQNNATKTFREFCGPADPEIARHLRPGTLRAIFGKTKIQNAVHCTDLPEDGLLEVQYFFKILDN", "notes": "Endogenous 42 kDa protein in cell lysates; also called native NME7"}, "B3": {"name": "NME7-X1 (ligand)", "chain": "MMMLSRKEALDFHVDHQSRPFFNELIQFITTGPIIAMEILRDDAICEWKRLLGPANSGVARTDASESIRALFGTDGIRNAAHGPDSFASAAREMELFFPSSGGCGPANTAKFTNCTCCIVKPHAVSEGLLGKILMAIRDAGFEISAMQMFNMDRVNVEEFYEVYKGVVTEYHDMVTEMYSGPCVAMEIQQNNATKTFREFCGPADPEIARHLRPGTLRAIFGKTKIQNAVHCTDLPEDGLLEVQYFFKILDN", "notes": "Alternative splice isoform of NME7; In the blots it is the endogenous 30 kDa species of cell lysates; also called human NME7-X1; 30 kDa NME7-reactive species"}}, "key": {"[1]": {"biological_target": "T1, full-length MUC1 (human, UniProt P15941 24-1255, limits assumed)", "T1 construct": "also called full-length MUC1 Receptor; Mucin 1 precursor", "T1 sequence (P15941 other isoform, or with tags, fused parts or gaps limits assumed)": "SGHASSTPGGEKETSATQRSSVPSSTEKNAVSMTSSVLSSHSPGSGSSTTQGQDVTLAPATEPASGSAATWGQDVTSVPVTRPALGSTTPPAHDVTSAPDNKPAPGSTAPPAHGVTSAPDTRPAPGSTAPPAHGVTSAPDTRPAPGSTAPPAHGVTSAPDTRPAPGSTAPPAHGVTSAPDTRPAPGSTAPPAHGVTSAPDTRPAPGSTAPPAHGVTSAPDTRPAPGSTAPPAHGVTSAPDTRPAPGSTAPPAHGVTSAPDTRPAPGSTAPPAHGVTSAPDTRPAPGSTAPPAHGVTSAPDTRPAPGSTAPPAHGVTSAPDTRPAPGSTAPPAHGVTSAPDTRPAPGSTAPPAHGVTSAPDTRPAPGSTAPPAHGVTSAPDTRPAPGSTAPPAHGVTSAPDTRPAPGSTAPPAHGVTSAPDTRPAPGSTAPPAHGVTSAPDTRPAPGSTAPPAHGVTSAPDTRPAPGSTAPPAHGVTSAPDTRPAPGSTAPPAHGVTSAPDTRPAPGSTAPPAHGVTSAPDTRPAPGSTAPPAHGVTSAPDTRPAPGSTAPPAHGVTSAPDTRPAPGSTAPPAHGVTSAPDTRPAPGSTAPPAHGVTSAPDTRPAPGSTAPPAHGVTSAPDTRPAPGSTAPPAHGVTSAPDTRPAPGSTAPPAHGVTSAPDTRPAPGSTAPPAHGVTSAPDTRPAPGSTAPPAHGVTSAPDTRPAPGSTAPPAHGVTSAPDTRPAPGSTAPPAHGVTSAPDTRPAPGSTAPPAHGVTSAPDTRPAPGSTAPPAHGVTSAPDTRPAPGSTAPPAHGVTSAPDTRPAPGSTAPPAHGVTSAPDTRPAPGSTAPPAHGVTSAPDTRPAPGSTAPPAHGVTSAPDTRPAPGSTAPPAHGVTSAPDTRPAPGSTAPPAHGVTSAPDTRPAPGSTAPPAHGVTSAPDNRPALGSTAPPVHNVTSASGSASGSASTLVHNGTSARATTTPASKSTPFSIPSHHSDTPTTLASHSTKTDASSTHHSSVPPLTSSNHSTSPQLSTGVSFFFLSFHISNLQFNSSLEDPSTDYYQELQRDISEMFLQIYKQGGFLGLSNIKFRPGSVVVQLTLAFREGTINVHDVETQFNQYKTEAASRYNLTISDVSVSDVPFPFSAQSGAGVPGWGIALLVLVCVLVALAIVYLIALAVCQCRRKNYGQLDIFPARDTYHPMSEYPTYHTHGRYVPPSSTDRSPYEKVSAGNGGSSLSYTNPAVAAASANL", "assay": "co-immunoprecipitation gel stripped and re-probed with an anti-MUC1* (PSMGFR) antibody"}, "[2]": {"biological_target": "T1, full-length MUC1", "assay": "co-immunoprecipitation with Ab5 from human iPS and HES cell lysates, Western blot for NME7"}}, "data": [{"binder": "B1", "values": [{"measurement": "binding result", "setting": "[1]", "result": "no binding"}]}, {"binder": "B2", "values": [{"measurement": "binding result", "setting": "[2]", "result": "no binding"}]}, {"binder": "B3", "values": [{"measurement": "binding result", "setting": "[1]", "result": "no binding"}]}]}
